No end group written: not given here.
Experiments:
[1] = tested on: human umbilical vein endothelial cells (HUVEC) which express NP-1, KDR and Flt-1; assay: radiolabelled VEGF binding to HUVEC; conditions: FIG. 2
Neuropilin-1 (NP-1) = target: T1, Neuropilin-1 (NP-1) (Homo sapiens, UniProt O14786); assay: 125I-VEGF165 binding to PAE/NP1 cells
T1 construct: expressed in transfected cells; host or cells: porcine aortic endothelial cells (PAE/NP1)

Flt-1 = target: T2, Flt-1 (Homo sapiens, UniProt P17948); assay: 125I-VEGF165 binding to PAE/Flt-1 cells; conditions: FIG. 2; cells expressing only Flt-1
T2 construct: expressed in transfected cells; host or cells: porcine aortic endothelial cells (PAE/Flt-1)
T2 sequence (P17948 27-1338, species assumed): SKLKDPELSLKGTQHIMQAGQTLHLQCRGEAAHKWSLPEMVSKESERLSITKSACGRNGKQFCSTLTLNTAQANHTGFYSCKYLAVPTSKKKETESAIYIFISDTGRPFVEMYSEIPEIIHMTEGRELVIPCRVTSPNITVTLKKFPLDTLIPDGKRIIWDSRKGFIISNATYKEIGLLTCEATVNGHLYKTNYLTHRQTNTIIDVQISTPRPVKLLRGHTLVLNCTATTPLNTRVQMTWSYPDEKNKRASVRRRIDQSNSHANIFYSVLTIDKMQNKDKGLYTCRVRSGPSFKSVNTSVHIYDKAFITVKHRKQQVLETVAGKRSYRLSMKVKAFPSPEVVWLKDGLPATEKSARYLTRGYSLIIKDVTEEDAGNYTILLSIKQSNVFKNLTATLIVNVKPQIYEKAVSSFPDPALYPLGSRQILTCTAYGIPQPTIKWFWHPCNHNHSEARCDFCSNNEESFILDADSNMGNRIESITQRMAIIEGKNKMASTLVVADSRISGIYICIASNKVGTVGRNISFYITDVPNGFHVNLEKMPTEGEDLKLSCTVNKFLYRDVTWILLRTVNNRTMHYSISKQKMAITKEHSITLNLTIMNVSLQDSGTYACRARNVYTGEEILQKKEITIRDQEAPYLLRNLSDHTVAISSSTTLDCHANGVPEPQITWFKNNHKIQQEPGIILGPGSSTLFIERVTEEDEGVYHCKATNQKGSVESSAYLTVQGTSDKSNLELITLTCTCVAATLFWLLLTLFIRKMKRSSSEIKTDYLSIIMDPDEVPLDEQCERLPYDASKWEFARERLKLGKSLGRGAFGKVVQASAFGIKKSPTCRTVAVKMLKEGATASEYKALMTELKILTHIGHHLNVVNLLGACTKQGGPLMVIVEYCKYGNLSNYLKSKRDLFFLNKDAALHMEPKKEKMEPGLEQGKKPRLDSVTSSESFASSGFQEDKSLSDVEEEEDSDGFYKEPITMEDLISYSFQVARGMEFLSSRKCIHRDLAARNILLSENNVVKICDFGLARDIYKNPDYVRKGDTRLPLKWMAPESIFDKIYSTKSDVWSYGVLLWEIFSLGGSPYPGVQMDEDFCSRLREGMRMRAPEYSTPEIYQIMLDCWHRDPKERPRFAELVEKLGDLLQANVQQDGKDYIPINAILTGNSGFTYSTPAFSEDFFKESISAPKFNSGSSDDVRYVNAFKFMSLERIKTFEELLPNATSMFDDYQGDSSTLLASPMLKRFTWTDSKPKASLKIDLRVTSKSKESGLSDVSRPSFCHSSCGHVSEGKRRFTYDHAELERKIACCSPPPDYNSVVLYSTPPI

KDR [2] = target: T3, KDR (Homo sapiens, UniProt P35968); assay: 125I-VEGF165 binding to PAE/KDR cells; conditions: FIG. 2; cells expressing only KDR
T3 construct: expressed in transfected cells; host or cells: porcine aortic endothelial cells (PAE/KDR)
T3 sequence (P35968 20-1356, species assumed): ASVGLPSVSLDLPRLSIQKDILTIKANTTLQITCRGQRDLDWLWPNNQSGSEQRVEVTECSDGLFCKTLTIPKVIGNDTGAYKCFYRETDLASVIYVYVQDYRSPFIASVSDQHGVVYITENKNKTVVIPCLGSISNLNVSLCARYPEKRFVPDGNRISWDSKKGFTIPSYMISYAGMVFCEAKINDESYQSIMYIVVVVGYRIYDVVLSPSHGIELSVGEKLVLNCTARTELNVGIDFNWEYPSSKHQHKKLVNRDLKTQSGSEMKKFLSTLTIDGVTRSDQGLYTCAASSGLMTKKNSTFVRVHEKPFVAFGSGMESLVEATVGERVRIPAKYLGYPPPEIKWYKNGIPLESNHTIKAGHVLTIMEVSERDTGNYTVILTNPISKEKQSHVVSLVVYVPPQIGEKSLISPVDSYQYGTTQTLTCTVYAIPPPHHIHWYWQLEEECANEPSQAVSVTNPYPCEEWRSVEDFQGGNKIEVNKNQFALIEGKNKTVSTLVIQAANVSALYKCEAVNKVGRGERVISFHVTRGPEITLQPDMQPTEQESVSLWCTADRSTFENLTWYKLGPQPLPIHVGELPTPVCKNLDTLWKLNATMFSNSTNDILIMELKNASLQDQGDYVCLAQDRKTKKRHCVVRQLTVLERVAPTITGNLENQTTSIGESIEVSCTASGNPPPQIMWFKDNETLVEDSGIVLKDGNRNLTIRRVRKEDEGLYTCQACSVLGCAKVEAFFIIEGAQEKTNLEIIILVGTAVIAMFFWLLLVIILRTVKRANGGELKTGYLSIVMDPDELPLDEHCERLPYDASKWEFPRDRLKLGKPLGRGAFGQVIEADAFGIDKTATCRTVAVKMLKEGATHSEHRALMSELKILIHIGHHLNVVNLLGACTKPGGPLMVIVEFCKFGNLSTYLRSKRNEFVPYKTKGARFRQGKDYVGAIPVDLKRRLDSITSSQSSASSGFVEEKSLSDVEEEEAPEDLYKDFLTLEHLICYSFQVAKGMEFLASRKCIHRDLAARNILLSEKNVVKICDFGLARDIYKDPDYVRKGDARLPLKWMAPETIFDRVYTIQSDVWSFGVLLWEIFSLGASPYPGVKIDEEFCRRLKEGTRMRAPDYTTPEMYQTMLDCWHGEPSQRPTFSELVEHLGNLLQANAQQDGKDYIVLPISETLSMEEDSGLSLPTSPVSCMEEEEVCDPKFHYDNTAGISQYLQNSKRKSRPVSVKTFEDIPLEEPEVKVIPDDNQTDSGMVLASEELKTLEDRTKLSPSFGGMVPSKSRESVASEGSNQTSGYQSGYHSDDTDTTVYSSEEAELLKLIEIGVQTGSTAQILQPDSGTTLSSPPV

NP-1 = target: T4, NP-1 (Homo sapiens, UniProt O14786); assay: radiolabelled VEGF binding to MDA-MB-231 cells; conditions: FIG. 4; cells naturally express only NP-1 receptors for VEGF
T4 construct: the breast carcinoma cell line MDA-MB-231, that naturally expresses only NP-1 receptors for VEGF; endogenous in cells; host or cells: MDA-MB-231
T4 sequence (O14786 22-923): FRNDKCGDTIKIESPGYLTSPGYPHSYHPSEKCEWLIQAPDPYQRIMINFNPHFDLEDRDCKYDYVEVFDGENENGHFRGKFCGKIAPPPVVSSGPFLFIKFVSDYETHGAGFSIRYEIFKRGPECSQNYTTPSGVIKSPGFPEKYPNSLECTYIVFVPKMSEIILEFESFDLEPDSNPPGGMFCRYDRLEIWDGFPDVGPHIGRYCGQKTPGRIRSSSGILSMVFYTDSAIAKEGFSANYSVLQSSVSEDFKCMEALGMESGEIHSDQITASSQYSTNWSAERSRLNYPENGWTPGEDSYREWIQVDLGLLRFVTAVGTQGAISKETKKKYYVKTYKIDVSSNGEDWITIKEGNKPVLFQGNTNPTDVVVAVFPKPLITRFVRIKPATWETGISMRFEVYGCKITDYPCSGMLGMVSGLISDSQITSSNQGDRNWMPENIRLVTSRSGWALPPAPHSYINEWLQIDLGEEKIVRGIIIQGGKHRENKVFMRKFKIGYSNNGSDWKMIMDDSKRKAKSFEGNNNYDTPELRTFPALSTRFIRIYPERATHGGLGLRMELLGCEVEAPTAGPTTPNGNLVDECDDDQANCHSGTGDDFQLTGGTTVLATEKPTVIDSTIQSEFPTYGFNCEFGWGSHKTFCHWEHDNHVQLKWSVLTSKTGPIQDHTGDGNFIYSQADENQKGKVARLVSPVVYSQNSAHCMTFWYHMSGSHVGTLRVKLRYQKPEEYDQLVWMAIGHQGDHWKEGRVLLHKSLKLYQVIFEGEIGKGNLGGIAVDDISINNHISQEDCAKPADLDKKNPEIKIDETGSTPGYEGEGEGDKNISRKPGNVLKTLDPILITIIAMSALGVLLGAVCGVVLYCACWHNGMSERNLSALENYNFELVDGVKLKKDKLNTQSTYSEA

KDR [3] = assay: KDR Phosphorylation Assay; type: cell-based; conditions: FIG. 3; peptide at 10, 30 and 100 mM for 15 minutes, then 25 ng/ml VEGF for 10 minutes; immunoblot
Protocol: Cells were pretreated with peptide at 10, 30 and 100 mM for 15 minutes followed by treatment with 25 ng/ml VEGF for 10 minutes, and cells were immediately extracted by lysis buffer (64 mM Tris-HCl, pH 6.8, 0.2 mM Na3VO4, 2% SDS, 10% glycerol, 0.1 mM AEBSF, […] leupeptin). KDR phosphorylation was determined by immunoblotting cell extracts with antibodies which recognise either KDR phosphorylated at Tyrosines 1054 and 1059 (purchased from Oncogene Research Products Inc.) or total KDR (purchased from Santa Cruz Inc.). Immunoreactive bands were visualised by chemiluminescence using horseradish peroxidase-conjugated anti-rabbit IgG and ECL reagent.

HUVECs = conditions: Soker et al, J. Biol. Chem. 272 (1997); cited from earlier work

T1 sequence (O14786 22-923, species assumed): as the sequence (O14786 22-923) above

Row | effect on 125I-VEGF165 binding to PAE/NP1 cells (Neuropilin-1 (NP-1); FIG. 1, peptide 100 μM, porcine aortic endothelial cells expressing only NP-1) | inhibition of 125I-VEGF165 binding to PAE/NP-1 cells (Neuropilin-1 (NP-1); FIG. 2) | effect on 125I-VEGF165 binding to PAE/Flt-1 cells (Flt-1) | effect on 125I-VEGF165 binding to PAE/KDR cells (KDR [2]) | binding of radiolabelled VEGF to breast carcinoma cell line MDA-MB-231 (NP-1) | Substance | radiolabelled VEGF binding to HUVEC [1] | VEGF-induced KDR phosphorylation (KDR [3]) | inhibition of VEGF binding to HUVECs (HUVECs)
1 | inhibition | specific, selective inhibition | no effect | no effect | inhibited | EG3287: bicyclic form of SEQ ID NO. 2, SCKNTDSRCKARQLELNERTCRCDKPRR, amino acids 138 to 165 within VEGF (not fully specified (N-terminus, C-terminus, bridges); also: bicyclic, two disulfides, pairing not given here; listed as Homo sapiens) | inhibited | inhibited | 
2 |  |  |  |  |  | SEQ ID NO. 1: CSCKNTDSRCKARQLELNERTCRC, shortest active peptide of Soker et al; amino acids 22-44 of exon 7 and amino acid 1 of exon 8 (listed as Homo sapiens) |  |  | active
